In publication PMC7617670, “Activity Regulation of a Glutamine Amidotransferase Bienzyme Complex by Substrate-Induced Subunit Interface Expansion” (ACS catalysis, 2025):

Target: T1, PabB, synthase subunit of ADCS from Escherichia coli, as crystallized (His tag cleaved) (Escherichia coli, UniProt P05041 1-453)
T1 construct: PabB, synthase subunit of ADCS, E. coli; the gene was cloned into pET28a; Cho and Mg2+ in 8RP0; also called ADCS synthase subunit; source: E. coli BL21-Gold (DE3), purified (Ni-IMAC, TEV cleavage, reverse IMAC, preparative gel filtration); not shown: His6, N-terminal, cleaved
T1 sequence: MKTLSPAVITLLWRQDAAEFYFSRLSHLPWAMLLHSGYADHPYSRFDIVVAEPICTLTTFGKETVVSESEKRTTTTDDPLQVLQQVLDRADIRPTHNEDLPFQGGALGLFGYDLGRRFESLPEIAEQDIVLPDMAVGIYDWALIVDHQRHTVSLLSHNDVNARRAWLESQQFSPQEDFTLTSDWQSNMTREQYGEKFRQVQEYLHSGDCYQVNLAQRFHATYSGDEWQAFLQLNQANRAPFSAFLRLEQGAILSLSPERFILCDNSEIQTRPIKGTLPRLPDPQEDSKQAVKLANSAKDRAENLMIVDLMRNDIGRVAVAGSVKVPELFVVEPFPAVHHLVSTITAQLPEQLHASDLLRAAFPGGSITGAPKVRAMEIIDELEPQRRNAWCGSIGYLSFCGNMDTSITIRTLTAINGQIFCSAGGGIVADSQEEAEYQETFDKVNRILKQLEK
Assay: crystal structure; ADCS heterodimer with Gln-TE on aC79; reservoir supplemented with 0.2 M L-Gln, with or without 14.4 mM Cho added afterwards; 0.1 M MES pH 6.5, 1.5 M magnesium sulfate, 18 °C
Conditions: both partners purified

B1: PabA, glutaminase subunit of ADCS from Escherichia coli, as crystallized, with glutamyl thioester (Gln-TE) on aC79 (enzyme)
chain: MILLIDNYDSFTWNLYQYFCELGADVLVKRNDALTLADIDALKPQKIVISPGPCTPDEAGISLDVIRHYAGRLPILGVCLGHQAMAQAFGGKVVRAAKVMHGKTSPITHNGEGVFRGLANPLTVTRYHSLVVEPDSLPACFDVTAWSETREIMGIRHRQWDLEGVQFHPESILSEQGHQLLANFLHR
modifications: glutamyl thioester (Gln-TE) adduct covalently bound to the catalytic C79
notes: PabA, class I glutaminase subunit of ADCS, E. coli; the gene was cloned into pET28a; Same construct as m20; the adduct forms in one of the two heterodimers of the crystals grown with Gln; also called PabA with Gln-TE; source: E. coli BL21-Gold (DE3), purified (Ni-IMAC, TEV cleavage, reverse IMAC, preparative gel filtration); crystallized with 0.2 M L-Gln; not shown: His6, N-terminal, cleaved
B1: binds.
